Assay results: paper PMC8600089, “The development of a high-affinity conformation-sensitive antibody mimetic using a biocompatible copolymer carrier (iBody)” (The Journal of Biological Chemistry, 2021)
Starred links: 1 amine or outer side, 2 acyl side, 3 side chain; linkers in the order of their positions; H or OH if unused. Positions of bridges follow the written chain, without caps; N, C: chain ends. Groups on a side chain read outwards from the residue. *: point of attachment. PEG12 = NCCOCCOCCOCCOCCOCCOCCOCCOCCOCCOCCOCCOCCC(=O)O; Biotin = O=C1N[C@H]2[C@H](CS[C@H]2CCCCC(=O)*)N1; TBMB = c1c(C[*:1])cc(C[*:3])cc1C[*:2]

Target: T1, recombinant extracellular part of PSMA (construct not named; ELISA and SPR) (human, UniProt Q04609 44-750)
T1 construct: prostate-specific membrane antigen (PSMA), recombinant extracellular part; also called recombinant extracellular domain of PSMA; truncated version of the target enzyme
T1 sequence (Q04609 44-750): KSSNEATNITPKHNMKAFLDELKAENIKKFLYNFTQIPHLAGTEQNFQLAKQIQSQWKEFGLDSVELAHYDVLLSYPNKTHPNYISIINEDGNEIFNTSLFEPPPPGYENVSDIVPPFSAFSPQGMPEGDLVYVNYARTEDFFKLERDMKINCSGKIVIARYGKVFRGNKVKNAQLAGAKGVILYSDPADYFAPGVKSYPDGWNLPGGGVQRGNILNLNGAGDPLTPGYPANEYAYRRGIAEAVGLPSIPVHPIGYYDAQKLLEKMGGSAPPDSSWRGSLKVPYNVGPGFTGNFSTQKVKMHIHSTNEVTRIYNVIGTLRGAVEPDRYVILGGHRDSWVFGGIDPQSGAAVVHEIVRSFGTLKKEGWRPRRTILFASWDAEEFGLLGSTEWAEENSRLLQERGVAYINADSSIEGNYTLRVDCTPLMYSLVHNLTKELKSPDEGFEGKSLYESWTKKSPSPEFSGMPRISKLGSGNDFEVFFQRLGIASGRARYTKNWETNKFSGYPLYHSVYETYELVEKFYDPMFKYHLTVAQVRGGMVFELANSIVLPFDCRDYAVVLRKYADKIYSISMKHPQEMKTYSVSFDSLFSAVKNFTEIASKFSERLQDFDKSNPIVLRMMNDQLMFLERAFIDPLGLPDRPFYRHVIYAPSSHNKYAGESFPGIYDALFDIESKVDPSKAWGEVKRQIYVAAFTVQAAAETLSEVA
Conditions: both partners purified

B1: iBody 1, poly(HPMA-co-Ma-β-Ala-compound 2-co-Ma-β-Ala-ATTO488-co-Ma-β-Ala-NH-ED-biotin) (designed binder)
peptide: CDDECPDYVCGGSGK
modifications: not fully specified; N-terminus acetylated; C-terminal amide; three cysteines cyclized with TBMB; lysine side chain carries (CO)CH2CH2(OCH2CH2)5-NH2 (compound 2), through which the peptide is joined to the HPMA copolymer backbone; the polymer also carries ATTO488 (3.0× per polymer) and biotin (11.6× per polymer)
notes: bicyclic Peptide 1 as compound 2, 9.8 copies per polymer (20.4 wt%); Not a polypeptide as a whole: about 9.8 copies of the peptide on a synthetic HPMA copolymer (Mn = 88,100 g/mol, Mw = 104,000 g/mol); also called the iBody; copies: 9.8
EC50: 2 nM

B2: Peptide 1 (compound 1), TBMB-cyclized Ac-CDDECPDYVCGGSGK[PEG12-biotin]-NH2 (peptide)
peptide: Ac-CDDECPDYVCGGSGK([PEG12-Biotin])-NH2
modifications: linker 1-5-10 via TBMB
SMILES: CC(=O)N[C@H]1CSCc2cc3cc(c2)CSC[C@H](NC(=O)[C@H](CCC(=O)O)NC(=O)[C@H](CC(=O)O)NC(=O)[C@H](CC(=O)O)NC1=O)C(=O)N1CCC[C@H]1C(=O)N[C@@H](CC(=O)O)C(=O)N[C@@H](Cc1ccc(O)cc1)C(=O)N[C@@H](C(C)C)C(=O)N[C@H](C(=O)NCC(=O)NCC(=O)N[C@@H](CO)C(=O)NCC(=O)N[C@@H](CCCCNC(=O)CCOCCOCCOCCOCCOCCOCCOCCOCCOCCOCCOCCOCCNC(=O)CCCC[C@@H]1SC[C@@H]2NC(=O)N[C@@H]21)C(N)=O)CSC3
notes: bicyclic peptide selected by phage display against PSMA, with the GGSG spacer and an added lysine; also called the peptide; bicyclic peptide; source: synthetic peptide (SPPS, TBMB cyclization, RP HPLC); not shown: biotin (through a PEG12 linker on the C-terminal lysine), C-terminal, kept
EC50: > 5000 nM
